Laboratory results taken from paper doi:10.1101/2022.04.26.489605 (bioRxiv, 2022).
“And” between values parts separate entries of the source, which are not always exact repeats. Equal entries are not always repeated.

B1: Rab29 (residues 1-177) Q67L/T71A/S72A, GST tag removed (domain or fragment, human, UniProt O14966 1-177, looked up)
chain: MGSRDHLFKVLVVGDAAVGKTSLVQRYSQDSFSKHYKSTVGVDFALKVLQWSDYEIVRLQLWDIAGLERFAAMTRLYYRDASACVIMFDVTNATTFSNSQRWKQDLDSKLTLPNGEPVPCLLLANKCDLSPWAVSRDQIDRFSKENGFTGWTETSVKENKNINEAMRVLIEKMMRNS

How the values were obtained:
[1] = target: human leucine-rich repeat kinase 2 (LRRK2), full-length, recombinant (human) (UniProt Q5S007); test: cryo-EM structure
[2] = target: human leucine-rich repeat kinase 2 (LRRK2), full-length, recombinant (human, UniProt Q5S007 1-2527, R50H | S1647T | M2397T); test: cryo-EM structure
Chain of human leucine-rich repeat kinase 2 (LRRK2), full-length, recombinant (Q5S007 whole entry R50H/S1647T/M2397T): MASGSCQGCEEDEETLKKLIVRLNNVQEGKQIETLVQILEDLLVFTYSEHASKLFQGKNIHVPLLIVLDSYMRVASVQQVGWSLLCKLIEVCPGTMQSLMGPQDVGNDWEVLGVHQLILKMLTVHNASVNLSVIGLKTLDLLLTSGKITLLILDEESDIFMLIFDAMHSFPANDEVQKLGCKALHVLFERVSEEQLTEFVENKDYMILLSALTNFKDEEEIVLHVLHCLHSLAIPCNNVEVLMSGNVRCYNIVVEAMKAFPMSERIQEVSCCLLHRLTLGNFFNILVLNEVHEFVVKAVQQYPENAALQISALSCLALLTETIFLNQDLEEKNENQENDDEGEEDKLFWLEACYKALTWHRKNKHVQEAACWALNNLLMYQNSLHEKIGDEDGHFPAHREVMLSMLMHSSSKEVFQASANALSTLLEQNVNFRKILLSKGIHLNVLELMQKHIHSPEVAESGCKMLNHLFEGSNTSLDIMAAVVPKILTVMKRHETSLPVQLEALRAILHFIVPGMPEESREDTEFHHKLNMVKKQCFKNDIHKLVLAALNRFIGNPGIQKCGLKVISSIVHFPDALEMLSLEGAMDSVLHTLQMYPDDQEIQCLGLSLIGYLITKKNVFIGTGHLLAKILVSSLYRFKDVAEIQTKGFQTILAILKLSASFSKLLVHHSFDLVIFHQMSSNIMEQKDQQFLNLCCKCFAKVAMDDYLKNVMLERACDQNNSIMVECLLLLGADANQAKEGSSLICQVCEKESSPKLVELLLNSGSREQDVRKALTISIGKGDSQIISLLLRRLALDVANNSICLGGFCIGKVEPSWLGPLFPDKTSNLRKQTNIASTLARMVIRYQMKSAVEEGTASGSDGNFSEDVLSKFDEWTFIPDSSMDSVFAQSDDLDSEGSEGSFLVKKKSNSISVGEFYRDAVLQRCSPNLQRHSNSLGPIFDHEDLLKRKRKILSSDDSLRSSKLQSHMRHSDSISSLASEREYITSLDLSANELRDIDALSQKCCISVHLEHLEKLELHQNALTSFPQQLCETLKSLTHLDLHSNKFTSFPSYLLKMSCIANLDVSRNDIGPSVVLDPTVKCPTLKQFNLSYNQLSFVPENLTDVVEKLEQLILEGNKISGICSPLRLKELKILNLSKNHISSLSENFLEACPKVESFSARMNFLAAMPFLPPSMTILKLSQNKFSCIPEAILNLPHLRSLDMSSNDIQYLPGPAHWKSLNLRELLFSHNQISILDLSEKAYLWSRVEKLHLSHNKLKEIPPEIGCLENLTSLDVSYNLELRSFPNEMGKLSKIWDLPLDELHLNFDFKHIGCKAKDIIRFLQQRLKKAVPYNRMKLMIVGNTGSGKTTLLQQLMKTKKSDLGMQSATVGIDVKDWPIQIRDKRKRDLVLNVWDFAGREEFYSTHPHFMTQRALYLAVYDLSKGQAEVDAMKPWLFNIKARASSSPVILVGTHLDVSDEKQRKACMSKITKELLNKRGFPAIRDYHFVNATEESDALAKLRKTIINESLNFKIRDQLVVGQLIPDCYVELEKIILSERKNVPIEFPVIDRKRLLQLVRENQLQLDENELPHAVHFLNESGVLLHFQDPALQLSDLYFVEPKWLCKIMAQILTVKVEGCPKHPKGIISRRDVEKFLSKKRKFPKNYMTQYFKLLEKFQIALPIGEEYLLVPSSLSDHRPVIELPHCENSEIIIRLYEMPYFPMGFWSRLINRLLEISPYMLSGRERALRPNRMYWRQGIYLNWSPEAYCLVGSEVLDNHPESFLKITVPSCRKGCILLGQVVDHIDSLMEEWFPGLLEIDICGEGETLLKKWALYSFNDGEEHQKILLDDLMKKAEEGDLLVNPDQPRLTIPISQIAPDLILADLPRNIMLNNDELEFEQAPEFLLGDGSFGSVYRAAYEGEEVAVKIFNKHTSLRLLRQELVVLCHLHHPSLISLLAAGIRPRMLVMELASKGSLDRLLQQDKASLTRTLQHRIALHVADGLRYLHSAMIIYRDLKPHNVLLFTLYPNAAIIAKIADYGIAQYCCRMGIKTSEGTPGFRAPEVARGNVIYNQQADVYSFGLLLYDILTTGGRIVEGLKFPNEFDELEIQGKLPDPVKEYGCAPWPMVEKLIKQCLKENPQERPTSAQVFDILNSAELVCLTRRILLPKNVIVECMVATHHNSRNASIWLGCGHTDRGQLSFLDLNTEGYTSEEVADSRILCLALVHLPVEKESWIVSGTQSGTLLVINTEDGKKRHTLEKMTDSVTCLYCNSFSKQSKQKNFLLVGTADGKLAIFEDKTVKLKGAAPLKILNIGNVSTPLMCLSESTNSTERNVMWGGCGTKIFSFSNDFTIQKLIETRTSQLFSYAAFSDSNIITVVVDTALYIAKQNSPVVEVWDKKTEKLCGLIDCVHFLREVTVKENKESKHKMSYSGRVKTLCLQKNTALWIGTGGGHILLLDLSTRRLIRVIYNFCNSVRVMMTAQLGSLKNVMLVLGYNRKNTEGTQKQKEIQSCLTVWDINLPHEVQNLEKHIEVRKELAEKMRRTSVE

Row | Molecule | stoichiometry N (LRRK2 protomers) [1] | stoichiometry N [2] [Rab29 per LRRK2]
1 | human leucine-rich repeat kinase 2 (LRRK2), full-length, recombinant, Q5S007 1-2527 | 2 and 4 | –
2 | B1 | – | 1
